The stoichiometry N is the number of molecules, sites or subunits per partner or assembly.

Our source for the Ea required for thermal denaturation, T1/2 of thermal inactivation and stoichiometry N values is PMC3777949, “Dimerization Mediates Thermo-Adaptation, Substrate Affinity and Transglycosylation in a Highly Thermostable Maltogenic Amylase of Geobacillus thermoleovorans” (PLoS ONE, 2013).

The target in experiment [1] is Gt-Mamy D109A mutant (Geobacillus thermoleovorans).
For experiment [2], the target named is maltogenic amylase of Geobacillus thermoleovorans (Gt-Mamy), recombinant wild type (Geobacillus thermoleovorans). Put plainly: SEC; Sephacryl S-200 high resolution column, 100 mM sodium phosphate pH 7 with 50 mM NaCl, 0.3 ml/min; masses from a plot of molecular weight vs Ve/Vo against standards. (In gel filtration, larger molecules generally elute earlier.)

Consider Gt-Mamy D109A mutant (enzyme), for which, in experiment [1], the Ea required for thermal denaturation amounted to 33.8 kcal/mol; the T1/2 of thermal inactivation at 80, 90 and 100°C turned out to be 44.6 h.

For “maltogenic amylase of Geobacillus thermoleovorans (Gt-Mamy), recombinant wild type (enzyme)”, the stoichiometry N in experiment [2] came out at 2.
